target: acetylcholine receptor (Homo sapiens, UniProt P02708); assay: SPR binding affinity (RU) of optimized 5mer/6mer/7mer peptides, Examples 6-7; settings: SPR, peptides tested at 10 μM; 6mer-1 Top sequence (top combinations)
Method in brief: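 Synthetic 5mer and 6mer peptides, built from frequent or infrequent amino-acid combinations, were tested at 10 μM for binding to the human acetylcholine receptor by surface plasmon resonance. Binding is reported in response units (RU).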

Sequence of acetylcholine receptor (P02708 21-457): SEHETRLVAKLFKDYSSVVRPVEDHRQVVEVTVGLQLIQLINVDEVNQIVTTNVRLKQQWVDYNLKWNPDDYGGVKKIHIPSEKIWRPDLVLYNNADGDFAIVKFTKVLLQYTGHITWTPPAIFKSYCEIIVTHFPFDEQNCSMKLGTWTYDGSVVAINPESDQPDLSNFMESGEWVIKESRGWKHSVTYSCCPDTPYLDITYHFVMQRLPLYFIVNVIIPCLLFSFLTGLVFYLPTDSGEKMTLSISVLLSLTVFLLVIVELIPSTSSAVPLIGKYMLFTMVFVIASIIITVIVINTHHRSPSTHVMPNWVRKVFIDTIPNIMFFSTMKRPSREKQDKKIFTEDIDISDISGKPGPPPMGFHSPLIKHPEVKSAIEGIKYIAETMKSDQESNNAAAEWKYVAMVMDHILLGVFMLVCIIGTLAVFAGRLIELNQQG

Row | Substance | Binding affinity [Ru]
1 | 6mer-1-4 (RKSFYK) | 139
2 | 6mer-1-5 (KRQIRK) | 135
3 | 6mer-1-6 (RKSRCK) | 153
4 | 6mer-1-7 (KRQYSK) | 126
5 | 6mer-1-8 (RKRRRK) | 125
6 | 6mer-1-9 (RKSFCK) | 154
7 | 6mer-1-10 (KRWRLK) | 139
8 | 6mer-1-11 (KRQFTK) | 139
9 | 6mer-1-12 (KKQICK) | 128
10 | 6mer-1-13 (KRQIQR) | 147
11 | 6mer-1-14 (RKRFLK) | 145
12 | 6mer-1-15 (KRQICK) | 123
13 | 6mer-1-16 (KKQYCR) | 136
14 | 6mer-1-17 (KRVQCR) | 135
15 | 6mer-1-18 (KKQFTR) | 145
16 | 6mer-1-19 (KRSFYR) | 135
17 | 6mer-1-20 (KKSRYK) | 147
18 | 6mer-1-21 (RKWYLK) | 137
19 | 6mer-1-22 (RKRLCK) | 126
20 | 6mer-1-23 (KRSVSR) | 153
21 | 6mer-1-24 (RKVIRK) | 142
22 | 6mer-1-25 (KKLIRR) | 135
23 | 6mer-1-26 (KKRVLR) | 123
24 | 6mer-1-27 (KRSFTK) | 142

Row | Substance | Binding affinity [Ru]
25 | 6mer-1-28 (RRWISK) | 125
26 | 6mer-1-29 (KRLISR) | 124
27 | 6mer-1-30 (RRQVRR) | 154
28 | 6mer-1-31 (KRLYCR) | 121
29 | 6mer-1-32 (RKGQCR) | 121
30 | 6mer-1-33 (KKSYCR) | 154
31 | 6mer-1-34 (RKWLYK) | 135
32 | 6mer-1-35 (RRGRQR) | 136
33 | 6mer-1-36 (RKWQQK) | 124
34 | 6mer-1-37 (KKWVLR) | 121
35 | 6mer-1-38 (RRQQTK) | 126
36 | 6mer-1-39 (RKVYQK) | 139
37 | 6mer-1-40 (KRSQYK) | 121
38 | 6mer-1-41 (RKGITK) | 122
39 | 6mer-1-42 (KKRIQR) | 139
40 | 6mer-1-44 (KRQYCK) | 148
41 | 6mer-1-45 (RKGLTK) | 145
42 | 6mer-1-46 (KRLYQR) | 142
43 | 6mer-1-47 (KRRLLK) | 149
44 | 6mer-1-48 (RRWVRR) | 124
45 | 6mer-1-49 (RRWQTR) | 149
46 | 6mer-1-50 (KKVRTR) | 139
47 | 6mer-1-51 (RRVLYK) | 127
48 | 6mer-1-52 (RRRFLR) | 131

Row | Substance | Binding affinity [Ru]
49 | 6mer-1-53 (KRVIQR) | 123
50 | 6mer-1-54 (RRRVCK) | 144
51 | 6mer-1-55 (KRSIYR) | 133
52 | 6mer-1-56 (RRGIQR) | 137
53 | 6mer-1-57 (RKQYYK) | 139
54 | 6mer-1-58 (RKSVTR) | 126
55 | 6mer-1-59 (KRLQCK) | 145
56 | 6mer-1-60 (RKSIQK) | 139
57 | 6mer-1-61 (KRSYCK) | 121
58 | 6mer-1-62 (RRWFTK) | 133
59 | 6mer-1-63 (KKWVSR) | 148
60 | 6mer-1-64 (RKQFTK) | 154
61 | 6mer-1-65 (KKSRRR) | 121
62 | 6mer-1-66 (KKSISR) | 147
63 | 6mer-1-67 (RRSYTR) | 135
64 | 6mer-1-68 (RKLQLK) | 153
65 | 6mer-1-69 (RKVRRR) | 142
66 | 6mer-1-70 (KKLLYR) | 139
67 | 6mer-1-71 (KRWFYK) | 121
68 | 6mer-1-72 (RKVQLK) | 139
69 | 6mer-1-73 (KKQQQR) | 142
70 | 6mer-1-74 (KKVRLR) | 142
71 | 6mer-1-75 (RRQYQK) | 139
72 | 6mer-1-76 (RRLQLK) | 126

Row | Substance | Binding affinity [Ru]
73 | 6mer-1-77 (KKQLRR) | 149
74 | 6mer-1-78 (KKRVSK) | 145
75 | 6mer-1-79 (KRLFCK) | 137
76 | 6mer-1-80 (KRVQQR) | 133
77 | 6mer-1-81 (RRWQLR) | 148
78 | 6mer-1-82 (KKVLYR) | 123
79 | 6mer-1-83 (RRSFLR) | 146
80 | 6mer-1-84 (RRGQTK) | 142
81 | 6mer-1-85 (RKRQCK) | 121
82 | 6mer-1-86 (KKWRQK) | 142
83 | 6mer-1-87 (KKQVYK) | 139
84 | 6mer-1-88 (KRWICK) | 121
85 | 6mer-1-89 (RKQRCK) | 142
86 | 6mer-1-90 (KKGISK) | 125
87 | 6mer-1-91 (RKQQCK) | 131
88 | 6mer-1-92 (RRWRLK) | 153
89 | 6mer-1-93 (KRWIRR) | 136
90 | 6mer-1-94 (RKVQQK) | 142
91 | 6mer-1-95 (KKWQTK) | 142
92 | 6mer-1-96 (KRGVRK) | 125
93 | 6mer-1-97 (KKVYLR) | 139
94 | 6mer-1-98 (KRLQCR) | 154
95 | 6mer-1-99 (RKVVYR) | 136
96 | 6mer-1-100 (RKWISK) | 146

Row | Substance | Binding affinity [Ru]
97 | 6mer-1-101 (KRWLYR) | 142
98 | 6mer-1-102 (RRRYRR) | 127
99 | 6mer-1-103 (RKRICK) | 122
100 | 6mer-1-104 (KRGFSK) | 121
101 | 6mer-1-105 (KKSISK) | 141
102 | 6mer-1-106 (KRGQLK) | 149
103 | 6mer-1-107 (KKQRSR) | 131
104 | 6mer-1-108 (RRLLLR) | 139
105 | 6mer-1-109 (KKRYLR) | 148
106 | 6mer-1-110 (KRQLLK) | 121
107 | 6mer-1-111 (RKVICR) | 144
108 | 6mer-1-112 (KKWVCR) | 148
109 | 6mer-1-113 (KRGVQK) | 148
110 | 6mer-1-114 (RRQITK) | 153
111 | 6mer-1-115 (RRSLSR) | 133
112 | 6mer-1-116 (RKVRCK) | 139
113 | 6mer-1-117 (KRLFTR) | 142
114 | 6mer-1-118 (RKLQLR) | 127
115 | 6mer-1-119 (KRLQTR) | 133
116 | 6mer-1-120 (RRRYSR) | 124
117 | 6mer-1-121 (KRRYTK) | 148
118 | 6mer-1-122 (KKLIRK) | 139
119 | 6mer-1-123 (RRGVQK) | 148
120 | 6mer-1-124 (KRVQQK) | 137

Row | Substance | Binding affinity [Ru]
121 | 6mer-1-125 (KRRLCR) | 135
122 | 6mer-1-126 (KKWIQR) | 148
123 | 6mer-1-127 (KRVIYR) | 147
124 | 6mer-1-128 (RKQFYR) | 126
125 | 6mer-1-129 (RRRQSK) | 121
126 | 6mer-1-130 (RKQVLR) | 142
127 | 6mer-1-131 (KRGIQR) | 142
128 | 6mer-1-132 (RRQVYR) | 153
129 | 6mer-1-133 (RKRFLR) | 154
130 | 6mer-1-134 (KKSIYR) | 128
131 | 6mer-1-135 (KRQVSR) | 123
132 | 6mer-1-136 (RRWLYK) | 148
133 | 6mer-1-137 (RRLFRR) | 121
134 | 6mer-1-138 (RKVVTR) | 124
135 | 6mer-1-139 (KRRFLR) | 122
136 | 6mer-1-140 (KRQVQR) | 148
137 | 6mer-1-141 (RKLYQK) | 141
138 | 6mer-1-142 (KKVYYK) | 123
139 | 6mer-1-143 (KRGVLR) | 145
140 | 6mer-1-144 (RKRYTR) | 148
141 | 6mer-1-145 (RKVFQR) | 141
142 | 6mer-1-146 (KRGRRR) | 139
143 | 6mer-1-147 (KKQIQR) | 125
144 | 6mer-1-148 (RKLRCR) | 146

Row | Substance | Binding affinity [Ru]
145 | 6mer-1-149 (RRWVCK) | 131
146 | 6mer-1-150 (RKRQCR) | 142
147 | 6mer-1-151 (KRGVRR) | 145
148 | 6mer-1-152 (KRVIRR) | 154
149 | 6mer-1-153 (KKWQQR) | 146
150 | 6mer-1-154 (KKLYSR) | 153
151 | 6mer-1-155 (RRVRSR) | 127
152 | 6mer-1-156 (RRSVTK) | 154
153 | 6mer-1-157 (KKSLLR) | 123
154 | 6mer-1-158 (RRLIYR) | 131
155 | 6mer-1-159 (KRLRRK) | 139
156 | 6mer-1-160 (RRVIQR) | 149
157 | 6mer-1-161 (KRRYCK) | 139
158 | 6mer-1-162 (KKSLSK) | 142
159 | 6mer-1-163 (KRLQTK) | 147
160 | 6mer-1-164 (KRGQYK) | 145
161 | 6mer-1-165 (KKWFTK) | 148
162 | 6mer-1-166 (RRWYSK) | 148

Source: US20250011363A1, “OPTIMIZED SHORTENED PEPTIDE THAT BINDS TO ACETYLCHOLINE RECEPTOR, AND USE THEREOF” (SKINMED CO., LTD., priority 2021, published 2025)
